Laboratory results reported in PMC9482650, “Quantitative fragmentomics allow affinity mapping of interactomes” (Nature Communications, 2022).

T1: CNKSR1, Q969H4
T1 sequence (Q969H4 191-295, limits assumed, looked up): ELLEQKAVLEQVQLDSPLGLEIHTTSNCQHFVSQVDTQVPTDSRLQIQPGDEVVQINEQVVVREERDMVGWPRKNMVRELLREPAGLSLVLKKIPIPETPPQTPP

T2: LNX2_4, Q8N448
T2 sequence (Q8N448 595-690, limits assumed, looked up): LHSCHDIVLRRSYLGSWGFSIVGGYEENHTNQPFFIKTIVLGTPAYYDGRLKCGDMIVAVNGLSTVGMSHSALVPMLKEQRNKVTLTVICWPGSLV

T3: MAGI2_1, Q86UL8
T3 sequence (Q86UL8 12-111, limits assumed, looked up): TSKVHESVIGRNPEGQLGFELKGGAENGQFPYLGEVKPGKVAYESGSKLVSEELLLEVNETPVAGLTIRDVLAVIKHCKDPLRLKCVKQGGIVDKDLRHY

T4: MPDZ_3, O75970
T4 sequence (O75970 372-473, limits assumed, looked up): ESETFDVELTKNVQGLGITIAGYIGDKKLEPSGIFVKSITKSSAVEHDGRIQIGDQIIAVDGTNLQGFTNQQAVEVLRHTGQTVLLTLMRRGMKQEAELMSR

T5: MPDZ_6, O75970
T5 sequence (O75970 1003-1099, limits assumed, looked up): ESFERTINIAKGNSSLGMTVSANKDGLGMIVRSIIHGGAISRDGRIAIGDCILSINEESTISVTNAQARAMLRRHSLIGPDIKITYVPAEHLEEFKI

T6: MPP1, Q00013
T6 sequence (Q00013 66-162, limits assumed, looked up): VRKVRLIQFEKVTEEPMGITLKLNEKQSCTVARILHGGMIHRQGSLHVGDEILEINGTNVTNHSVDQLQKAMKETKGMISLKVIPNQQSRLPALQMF

T7: NHERF1_1, O14745
T7 sequence (O14745 9-104, limits assumed, looked up): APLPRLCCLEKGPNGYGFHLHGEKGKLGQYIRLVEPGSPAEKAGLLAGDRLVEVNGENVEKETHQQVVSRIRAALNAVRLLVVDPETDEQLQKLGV

T8: NHERF1_2, O14745
T8 sequence (O14745 149-244, limits assumed, looked up): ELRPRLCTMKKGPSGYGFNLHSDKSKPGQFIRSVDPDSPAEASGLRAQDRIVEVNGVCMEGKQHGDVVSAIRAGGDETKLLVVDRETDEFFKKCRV

T9: PDZD2_3, O15018
T9 sequence (O15018 581-682, limits assumed, looked up): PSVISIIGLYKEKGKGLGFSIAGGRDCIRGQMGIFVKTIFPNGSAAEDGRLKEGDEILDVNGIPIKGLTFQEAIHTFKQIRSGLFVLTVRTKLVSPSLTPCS

T10: PTPN13_4, Q12923
T10 sequence (Q12923 1783-1878, limits assumed, looked up): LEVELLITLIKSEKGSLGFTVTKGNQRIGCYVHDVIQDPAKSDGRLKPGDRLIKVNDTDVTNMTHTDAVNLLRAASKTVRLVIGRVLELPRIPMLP

T11: RGS12, O14924
T11 sequence (O14924 17-108, limits assumed, looked up): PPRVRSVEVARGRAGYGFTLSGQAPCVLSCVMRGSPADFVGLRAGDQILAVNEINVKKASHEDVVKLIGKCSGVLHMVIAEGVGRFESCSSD

T12: SHANK3, Q9BYB0
T12 sequence (Q9BYB0 641-750, limits assumed, looked up): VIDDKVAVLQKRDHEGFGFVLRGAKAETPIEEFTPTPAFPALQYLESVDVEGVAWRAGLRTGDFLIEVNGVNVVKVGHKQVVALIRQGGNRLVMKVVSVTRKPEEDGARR

T13: SNTB2, Q13425
T13 sequence (Q13425 110-208, limits assumed, looked up): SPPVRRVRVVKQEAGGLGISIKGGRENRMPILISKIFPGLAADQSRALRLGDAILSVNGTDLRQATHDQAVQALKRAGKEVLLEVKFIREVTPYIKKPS

T14: USH1C_1, Q9Y6N9
T14 sequence (Q9Y6N9 82-179, limits assumed, looked up): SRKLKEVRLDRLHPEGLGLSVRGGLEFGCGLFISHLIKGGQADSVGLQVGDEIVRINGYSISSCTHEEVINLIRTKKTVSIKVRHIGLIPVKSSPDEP


Tests used:
Assay in all cases: holdup assay
Parameters in all cases: key: below the threshold = too weak to quantify, mostly under pKd 3.1 to 4
Settings in all cases: plain residues with an end cap or a label only (N-terminal biotin on a linker: ttds)
CNKSR1, Q969H4 = biological target: T1, CNKSR1, Q969H4
CNKSR3, Q6P9H4 = biological target: CNKSR3, Q6P9H4
GRIP2_2, Q9C0E4 = biological target: GRIP2_2, Q9C0E4
IL16_2, Q14005 = biological target: IL16_2, Q14005
LNX2_4, Q8N448 = biological target: T2, LNX2_4, Q8N448
MAGI1_3, Q96QZ7 = biological target: MAGI1_3, Q96QZ7
MAGI1_5, Q96QZ7 = biological target: MAGI1_5, Q96QZ7
MAGI2_1, Q86UL8 = biological target: T3, MAGI2_1, Q86UL8
MPDZ_3, O75970 = biological target: T4, MPDZ_3, O75970
MPDZ_6, O75970 = biological target: T5, MPDZ_6, O75970
MPP1, Q00013 = biological target: T6, MPP1, Q00013
NHERF1_1, O14745 = biological target: T7, NHERF1_1, O14745
NHERF1_2, O14745 = biological target: T8, NHERF1_2, O14745
PARD3_1, Q8TEW0 = biological target: PARD3_1, Q8TEW0
PDZD2_3, O15018 = biological target: T9, PDZD2_3, O15018
PTPN13_4, Q12923 = biological target: T10, PTPN13_4, Q12923
RGS12, O14924 = biological target: T11, RGS12, O14924
RGS3, P49796-9 = biological target: RGS3, P49796-9
RIMS1, Q86UR5 = biological target: RIMS1, Q86UR5
SCRIB_4, Q14160 = biological target: SCRIB_4, Q14160
SHANK3, Q9BYB0 = biological target: T12, SHANK3, Q9BYB0
SNTB2, Q13425 = biological target: T13, SNTB2, Q13425
USH1C_1, Q9Y6N9 = biological target: T14, USH1C_1, Q9Y6N9

CNKSR3, Q6P9H4, sequence (Q6P9H4 203-303): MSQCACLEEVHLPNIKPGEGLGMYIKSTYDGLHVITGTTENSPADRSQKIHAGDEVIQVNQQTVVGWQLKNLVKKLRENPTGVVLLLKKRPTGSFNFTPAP
IL16_2, Q14005, sequence (Q14005 350-450): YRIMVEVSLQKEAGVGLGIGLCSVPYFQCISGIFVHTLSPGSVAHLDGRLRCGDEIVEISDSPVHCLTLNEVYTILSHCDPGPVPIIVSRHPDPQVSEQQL
RIMS1, Q86UR5, sequence (Q86UR5 584-692): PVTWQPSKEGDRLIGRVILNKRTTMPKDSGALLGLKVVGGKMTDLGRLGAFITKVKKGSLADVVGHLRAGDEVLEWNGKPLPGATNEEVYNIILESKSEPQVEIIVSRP
SCRIB_4, Q14160, sequence (Q14160 1095-1204): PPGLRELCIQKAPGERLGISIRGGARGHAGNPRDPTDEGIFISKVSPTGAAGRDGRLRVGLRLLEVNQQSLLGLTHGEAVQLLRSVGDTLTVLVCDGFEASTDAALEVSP
MAGI1_5, Q96QZ7, sequence (Q96QZ7 986-1098): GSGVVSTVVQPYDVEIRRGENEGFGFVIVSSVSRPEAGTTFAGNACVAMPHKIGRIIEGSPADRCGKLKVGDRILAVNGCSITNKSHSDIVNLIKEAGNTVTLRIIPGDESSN
GRIP2_2, Q9C0E4, sequence (Q9C0E4 137-245): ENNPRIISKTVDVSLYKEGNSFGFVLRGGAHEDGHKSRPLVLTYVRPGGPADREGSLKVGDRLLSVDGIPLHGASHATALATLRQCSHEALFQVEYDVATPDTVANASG
RGS3, P49796-9, sequence (P49796 other isoform, or with tags, fused parts or gaps): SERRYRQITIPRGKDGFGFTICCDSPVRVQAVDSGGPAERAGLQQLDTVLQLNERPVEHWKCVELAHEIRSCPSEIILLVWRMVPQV
PARD3_1, Q8TEW0, sequence (Q8TEW0 264-372): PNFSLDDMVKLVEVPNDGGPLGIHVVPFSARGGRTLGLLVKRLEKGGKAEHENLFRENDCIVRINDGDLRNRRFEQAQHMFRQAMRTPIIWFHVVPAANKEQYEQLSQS
MAGI1_3, Q96QZ7, sequence (Q96QZ7 638-725): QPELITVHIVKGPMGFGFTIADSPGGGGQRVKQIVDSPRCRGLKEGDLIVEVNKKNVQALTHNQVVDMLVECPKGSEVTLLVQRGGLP

Row | Binder | pKd (CNKSR1, Q969H4) | pKd (CNKSR3, Q6P9H4) | pKd (IL16_2, Q14005) | pKd (LNX2_4, Q8N448) | pKd (MAGI1_3, Q96QZ7) | pKd (MAGI1_5, Q96QZ7) | pKd (MAGI2_1, Q86UL8) | pKd (MPDZ_3, O75970) | pKd (MPDZ_6, O75970) | pKd (MPP1, Q00013) | pKd (NHERF1_1, O14745) | pKd (NHERF1_2, O14745) | pKd (PARD3_1, Q8TEW0) | pKd (PDZD2_3, O15018) | pKd (PTPN13_4, Q12923) | pKd (RGS12, O14924) | pKd (RGS3, P49796-9) | pKd (RIMS1, Q86UR5) | pKd (SCRIB_4, Q14160) | pKd (SHANK3, Q9BYB0) | other results
1 | PKTPPTDTSV [KIR3DL3, Q8N743] | below the threshold | below the threshold | below the threshold | below the threshold | below the threshold | below the threshold | below the threshold | below the threshold | below the threshold | below the threshold | below the threshold | below the threshold | below the threshold | 4.08 | below the threshold | below the threshold | below the threshold | below the threshold | below the threshold | below the threshold | pKd (GRIP2_2, Q9C0E4): below the threshold; pKd (SNTB2, Q13425): below the threshold; pKd (USH1C_1, Q9Y6N9): below the threshold
2 | QSARYRDTEL [TJP2, Q9UDY2] | below the threshold | below the threshold | below the threshold | below the threshold | below the threshold | below the threshold | below the threshold | below the threshold | below the threshold | below the threshold | below the threshold | below the threshold | below the threshold | below the threshold | below the threshold | below the threshold | below the threshold | below the threshold | below the threshold | below the threshold | pKd (GRIP2_2, Q9C0E4): below the threshold; pKd (SNTB2, Q13425): below the threshold; pKd (USH1C_1, Q9Y6N9): below the threshold
3 | SSRTRRETQL [HPV16-E6, P03126] | below the threshold | below the threshold | below the threshold | below the threshold | 4.16 | 4.69 | below the threshold | below the threshold | below the threshold | below the threshold | 4.15 | 3.89 | below the threshold | below the threshold | below the threshold | 4.37 | below the threshold | below the threshold | below the threshold | below the threshold | pKd (GRIP2_2, Q9C0E4): below the threshold; pKd (SNTB2, Q13425): 4.12; pKd (USH1C_1, Q9Y6N9): below the threshold
4 | RSLEEEESQL [GRASP, Q7Z6J2] | below the threshold | 4.6 | below the threshold | below the threshold | below the threshold | below the threshold | below the threshold | below the threshold | below the threshold | below the threshold | 4.46 | below the threshold | below the threshold | below the threshold | below the threshold | below the threshold | below the threshold | below the threshold | below the threshold | 5.24 | pKd (GRIP2_2, Q9C0E4): below the threshold; pKd (SNTB2, Q13425): below the threshold; pKd (USH1C_1, Q9Y6N9): below the threshold
5 | SRPQRTQTQV [HPV67-E6, A4U7F2] | below the threshold | below the threshold | 4.25 | below the threshold | 4.12 | 4.35 | below the threshold | below the threshold | below the threshold | 5.26 | below the threshold | below the threshold | below the threshold | below the threshold | below the threshold | below the threshold | below the threshold | below the threshold | below the threshold | below the threshold | pKd (SNTB2, Q13425): below the threshold; pKd (USH1C_1, Q9Y6N9): below the threshold
6 | SVWLRKETRV [CYSLTR2, Q9NS75] | below the threshold | below the threshold | below the threshold | below the threshold | 5.09 | 4.57 | below the threshold | below the threshold | below the threshold | 6.03 | below the threshold | below the threshold | below the threshold | below the threshold | below the threshold | below the threshold | below the threshold | below the threshold | 4.91 | below the threshold | pKd (GRIP2_2, Q9C0E4): below the threshold; pKd (SNTB2, Q13425): 5.14; pKd (USH1C_1, Q9Y6N9): below the threshold
